Substitutions are numbered along the chain they refer to.
Experiments:
[1] = target: T1, AlexaFluor647-labeled PCSK9; assay: TR-FRET competition assay: 1B20 titrated against 10 nM AF647-PCSK9; the blocked ligand is Eu-sLDLR (about 4 nM); the Ratio falls from about 6200 to about 1000 (right curve, squares)
T1 construct: Used in the TR-FRET assay and in the internalization assay; also called AF647-PCSK9; AF-labeled PCSK9
Experimental: (§1) AlexaFluor647-labeled PCSK9 (final concentration 10 nM) was combined with varying amounts of 1B20 and to this was added Eu(8044)-labeled LDLR ectodomain to a final concentration of ˜4 nM (sufficient to give ˜20,000 counts at F1620 nM on the Rubystar) in […] (pH 7.4), 150 mM NaCl, 0.1 mM CaCl₂, 0.05% (w/v) BSA in a total volume of 50 μL using 96 well black Dynatech U bottom plates. After at least 90 minutes of equilibration, samples were read in a Rubystar reader (BMG Corp.) using 20 flashes per well, a 50 usec integration delay, and a 200 usec total integration time. Data were expressed as the ratio of (F1665/F1620×10000) and an IC₅₀ for 1B20 was determined from the inflection point of a sigmoidal dose-response curve using a standard four parameter fit.

[2] = target: T2, mPCSK9v5His (mouse, UniProt Q80W65 35-694); assay: cell-based or functional assay
[3] = target: T3, hPCSK9v5His (human, UniProt Q8NBP7 31-692); assay: cell-based or functional assay
[4] = target: T2, mPCSK9v5His; assay: SPR Biacore 2000; Fab captured on anti-Fab IgG, PCSK9 in flow
Experimental: (§2) Anti-Fab IgG (Human specific) (Sigma, catalog #15260) was covalently coupled to surfaces 1 and 2 of a Sensor Chip CM5 via primary amine groups, using the immobilization wizard with the “Aim for immobilization” option using Biacore™ Amine Coupling Kit (cat#BR-1000-50. A target immobilization of 5000 RU was specified. The wizard uses a 7 minute activation with a 1:1 mixture of 100 mM NHS (N-Hydroxysuccinimide) and 400 mM EDC (1-ethyl-3-(3-dimethylaminopropyl)-carbodiimide), injects the ligand in several pulses to achieve the desired level, then deactivates the remaining surface with a 7 minute pulse of ethanolamine.
(§3) Anti-PCSK9 Fabs were captured on capture surface 2, and surface 1 was used as a reference for kinetic studies of Fab:PCSK9 interactions. […] 5-10 concentrations of hPCSK9v5H is or mPCSK9v5His antigens were flowed across the surface at […] for 3-4 minutes. 15-60 minutes dissociation time was allowed before regeneration of the Anti-Fab surface with a 30 second pulse of 10 mM glycine pH 2.0.
(§4) BiaEvaluation Software was used to evaluate the sensograms from the multiple concentration of PCSK9 antigen analyzed with each Fab, to estimate the kinetics constants of the Fab:PCSK9 interactions.

[5] = target: T3, hPCSK9v5His; assay: as above
Experimental: as §2, §3, §4

[6] = target: T1, AlexaFluor647-labeled PCSK9; assay: TR-FRET competition assay: 1B20 titrated against 10 nM AF647-PCSK9; the blocked ligand is Eu-sLDLR (about 4 nM); the Ratio falls from about 6200 to about 1000 (left curve, circles)
Experimental: as §1

[7] = target: T2, mPCSK9v5His; assay: SPR Biacore 2000; IgG captured on goat anti-human IgG, PCSK9 in flow
Experimental: (§5) A goat Anti-Human IgG (Caltag, catalog #H10700) was covalently coupled to surfaces 1 and 2 of a Sensor Chip CM5 via primary amine groups, using the immobilization wizard with the “Aim for immobilization” option using Biacore™ Amine Coupling Kit (cat#BR-1000-50. A target immobilization of 5000 RU was specified. The wizard uses a 7 minute activation with a 1:1 mixture of 100 mM NHS (N-Hydroxysuccinimide) and 400 mM EDC (1-ethyl-3-(3-dimethylaminopropyl)-carbodiimide), injects the ligand in several pulses to achieve the desired level, then deactivates the remaining surface with a 7 minute pulse of ethanolamine.
(§6) Anti-PCSK9 IgGs were captured on capture surface 2, and surface 1 was used as a reference for kinetic studies of IgG:PCSK9 interactions. IgG was captured by flowing a 10 nM solution at 10 μl/min for 1-1.5 minutes to reach a target RL for an R max of 100-150 RU for the reaction. 5-10 concentrations of hPCSK9v5His or mPCSK9v5His antigens were flowed across the surface at 30 or 60 μl/minute for 4 minutes. 15-60 minutes dissociation time was allowed before regeneration of the Anti-IgG surface with a 60 second pulse of 10 mM Glycine pH 1.7.
(§7) BiaEvaluation Software was used to evaluate the sensograms from the multiple concentration of PCSK9 antigen analyzed with each IgG, to estimate the kinetics constants of the IgG:PCSK9 interactions.

[8] = target: T3, hPCSK9v5His; assay: as above
Experimental: as §5, §6, §7

[9] = target: T3, hPCSK9v5His; assay: Bio-Rad ProteOn SPR, Fab against human PCSK9-V5-His
Experimental: Additional site-directed mutant variants of 1B20 were generated (mutations in the heavy chain) and are disclosed herein as SEQ ID NOs: 102-107. Kds of site-directed mutant variants of 1B20 Fabs were determined using a Bio-Rad ProteOn; with affinity being measured against human PCSK9-V5-His. The methodologies for measuring Fab affinities are essentially the same as previously described for Biacore®.

T3 sequence (Q8NBP7 31-692 limits assumed): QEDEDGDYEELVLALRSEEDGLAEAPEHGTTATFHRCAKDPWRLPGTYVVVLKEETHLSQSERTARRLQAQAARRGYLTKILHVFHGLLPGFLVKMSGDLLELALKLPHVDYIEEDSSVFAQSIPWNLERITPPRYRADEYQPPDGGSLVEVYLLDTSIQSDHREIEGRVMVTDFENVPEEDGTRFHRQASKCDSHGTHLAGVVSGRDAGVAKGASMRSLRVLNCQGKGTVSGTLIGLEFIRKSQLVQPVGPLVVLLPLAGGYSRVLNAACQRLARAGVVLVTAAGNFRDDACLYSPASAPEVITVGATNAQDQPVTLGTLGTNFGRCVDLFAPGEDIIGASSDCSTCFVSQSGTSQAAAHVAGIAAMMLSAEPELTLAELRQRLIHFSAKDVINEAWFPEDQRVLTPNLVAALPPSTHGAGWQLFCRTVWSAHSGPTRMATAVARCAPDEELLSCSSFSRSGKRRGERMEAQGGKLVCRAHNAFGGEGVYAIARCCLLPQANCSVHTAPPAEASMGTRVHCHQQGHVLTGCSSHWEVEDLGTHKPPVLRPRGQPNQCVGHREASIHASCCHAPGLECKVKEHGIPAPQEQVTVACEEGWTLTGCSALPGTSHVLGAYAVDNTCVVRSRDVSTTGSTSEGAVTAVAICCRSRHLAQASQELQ
T2 sequence (Q80W65 35-694 limits assumed): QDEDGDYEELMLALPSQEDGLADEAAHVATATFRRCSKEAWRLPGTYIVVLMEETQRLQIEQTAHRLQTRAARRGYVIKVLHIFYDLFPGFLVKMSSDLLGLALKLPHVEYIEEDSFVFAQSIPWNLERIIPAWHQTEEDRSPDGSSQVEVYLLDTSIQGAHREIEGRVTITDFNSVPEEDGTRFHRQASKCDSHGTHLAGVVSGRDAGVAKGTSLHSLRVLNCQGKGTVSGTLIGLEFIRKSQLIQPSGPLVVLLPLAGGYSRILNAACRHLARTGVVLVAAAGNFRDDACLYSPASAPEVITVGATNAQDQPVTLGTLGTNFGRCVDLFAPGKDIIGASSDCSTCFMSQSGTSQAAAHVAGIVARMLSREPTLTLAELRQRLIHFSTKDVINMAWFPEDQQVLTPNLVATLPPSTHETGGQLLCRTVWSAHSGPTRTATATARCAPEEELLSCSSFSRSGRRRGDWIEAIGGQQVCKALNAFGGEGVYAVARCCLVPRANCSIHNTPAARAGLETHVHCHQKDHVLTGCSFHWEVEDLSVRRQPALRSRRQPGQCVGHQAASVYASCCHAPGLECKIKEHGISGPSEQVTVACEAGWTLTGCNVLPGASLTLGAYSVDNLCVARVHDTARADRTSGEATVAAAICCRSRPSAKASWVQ
T1 sequence (Q8NBP7 153-692, chain 1 of 2): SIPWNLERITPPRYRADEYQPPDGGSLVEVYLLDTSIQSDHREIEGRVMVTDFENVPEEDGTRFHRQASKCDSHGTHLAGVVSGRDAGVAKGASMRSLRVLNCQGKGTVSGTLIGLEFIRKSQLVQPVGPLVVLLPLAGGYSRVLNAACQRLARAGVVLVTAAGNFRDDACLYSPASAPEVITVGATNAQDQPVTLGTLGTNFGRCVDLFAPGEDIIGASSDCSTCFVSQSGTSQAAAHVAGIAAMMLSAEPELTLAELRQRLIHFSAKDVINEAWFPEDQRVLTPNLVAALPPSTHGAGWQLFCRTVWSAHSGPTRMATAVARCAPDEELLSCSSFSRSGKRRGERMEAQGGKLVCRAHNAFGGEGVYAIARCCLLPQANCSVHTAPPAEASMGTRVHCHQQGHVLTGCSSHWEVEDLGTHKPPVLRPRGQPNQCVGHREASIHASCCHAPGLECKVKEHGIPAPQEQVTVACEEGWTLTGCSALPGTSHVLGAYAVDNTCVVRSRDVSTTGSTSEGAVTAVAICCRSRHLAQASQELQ
T1 sequence (Q8NBP7 31-152, chain 2 of 2): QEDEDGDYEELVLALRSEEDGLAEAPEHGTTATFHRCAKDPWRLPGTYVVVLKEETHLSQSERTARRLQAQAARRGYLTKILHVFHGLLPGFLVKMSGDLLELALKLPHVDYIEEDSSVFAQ

B1: 1B20 Fab (Fab, V domains shown)
VH: QVQLVQSGAEVKKPGESLKISCKGSGYSFTNYWISWVRQMPGKGLEWMGIIYPGDSYTNYSPSFQGQVTISADKSISTAYLQWSSLKASDTAMYYCARDYWYKPLFDIWGQGTLVTVSS
VL: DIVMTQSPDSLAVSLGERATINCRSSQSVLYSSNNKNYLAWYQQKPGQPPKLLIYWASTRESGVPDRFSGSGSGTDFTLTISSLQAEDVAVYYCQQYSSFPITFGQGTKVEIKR
notes: His-tagged Fab expressed in E. coli and purified by IMAC; also called 6CX1B20
IC50 [1]: 25.8 nM
IC50, inhibition of PCSK9-dependent loss of cellular LDL-uptake (Exopolar assay, HEK cells) [2]: 152 nM
IC50, inhibition of PCSK9-dependent loss of cellular LDL-uptake (Exopolar assay, HEK cells) [3]: 145 nM
Ka [4]: 2e+09 M⁻¹
Kd [4]: 0.51 nM
koff [4]: 7.2e-05 s⁻¹
kon [4]: 141000 M⁻¹ s⁻¹
Ka [5]: 1.5e+09 M⁻¹
Kd [5]: 0.74 nM
koff [5]: 4.8e-05 s⁻¹
kon [5]: 66000 M⁻¹ s⁻¹

B2: 1B20 IgG (antibody, V domains shown)
VH: B1 VH
VL: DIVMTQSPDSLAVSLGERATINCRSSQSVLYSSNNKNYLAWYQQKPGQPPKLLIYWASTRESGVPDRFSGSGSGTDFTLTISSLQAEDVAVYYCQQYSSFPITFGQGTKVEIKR
notes: Full-length IgG2m4 with kappa light chain, expressed in HEK293 cells, purified on Protein A; also called 1B20 whole IgG; 1B20 IgG2m4
IC50 [6]: 2.8 nM
IC50, inhibition of PCSK9-dependent loss of cellular LDL-uptake (Exopolar assay, HEK cells) [2]: 13 nM
IC50, inhibition of PCSK9-dependent loss of cellular LDL-uptake (Exopolar assay, HEK cells) [3]: 22 nM
Ka [7]: 7.4e+08 M⁻¹
Kd [7]: 1.4 nM
koff [7]: 0.00012 s⁻¹
kon [7]: 89000 M⁻¹ s⁻¹
Ka [8]: 1.4e+09 M⁻¹
Kd [8]: 0.89 nM
koff [8]: 4.3e-05 s⁻¹
kon [8]: 53000 M⁻¹ s⁻¹

B3: 1B20 Fab variant N59K (Fab, V domains shown)
VH: B1 VH with N59K
VL: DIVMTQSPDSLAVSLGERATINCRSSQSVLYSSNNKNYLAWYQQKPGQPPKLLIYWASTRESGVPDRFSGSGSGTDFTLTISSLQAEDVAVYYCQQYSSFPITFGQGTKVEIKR
notes: Site-directed variant of the 1B20 Fab, 'mutations in the heavy chain'
Kd [9]: 0.013 nM

B4: 1B20 Fab variant W101Y (Fab, V domains shown)
VH: B1 VH with W101Y
VL: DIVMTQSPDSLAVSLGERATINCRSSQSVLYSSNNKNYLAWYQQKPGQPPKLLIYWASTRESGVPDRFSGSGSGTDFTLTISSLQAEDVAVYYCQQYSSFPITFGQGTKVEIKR
notes: as for B3
Kd [9]: 0.78 nM

B5: 1B20 Fab variant W101F (Fab, V domains shown)
VH: B1 VH with W101F
VL: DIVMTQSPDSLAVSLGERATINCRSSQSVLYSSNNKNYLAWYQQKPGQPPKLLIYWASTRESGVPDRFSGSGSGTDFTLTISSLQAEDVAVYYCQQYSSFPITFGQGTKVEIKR
notes: as for B3
Kd [9]: 1.12 nM

B6: 1B20 Fab variant N59R (Fab, V domains shown)
VH: B1 VH with N59R
VL: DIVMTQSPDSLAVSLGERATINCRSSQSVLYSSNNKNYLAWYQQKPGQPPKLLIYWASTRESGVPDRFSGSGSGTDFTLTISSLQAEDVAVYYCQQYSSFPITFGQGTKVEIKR
notes: as for B3
Kd [9]: 0.049 nM

B7: 1B20 Fab variant N59Q (Fab, V domains shown)
VH: B1 VH with N59Q
VL: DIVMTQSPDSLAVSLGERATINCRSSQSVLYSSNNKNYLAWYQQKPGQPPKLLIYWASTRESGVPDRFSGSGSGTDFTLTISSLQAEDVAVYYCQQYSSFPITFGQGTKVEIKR
notes: as for B3
Kd [9]: 0.117 nM

B8: 1B20 Fab variant W101A (Fab, V domains shown)
VH: B1 VH with W101A
VL: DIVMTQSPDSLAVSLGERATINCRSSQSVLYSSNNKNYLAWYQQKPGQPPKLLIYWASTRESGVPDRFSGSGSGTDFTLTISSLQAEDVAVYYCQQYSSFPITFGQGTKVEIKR
notes: as for B3
Kd [9]: 1.37 nM

— patent US20130071379A1 (Merck Sharp & Dohme, published 2013)
